{
  "source": "paper doi:10.1101/2021.06.08.447555",
  "about": "(bioRxiv, 2021)",
  "proteins": {"B1": {"name": "His6-eVP40 (Ebola virus matrix protein VP40) (natural protein)", "chain": "MRRVILPTAPPEYMEAIYPVRSNSTIARGGNSNTGFLTPESVNGDTPSNPLRPIADDTIDHASHTPGSVSSAFILEAMVNVISGPKVLMKQIPIWLPLGVADQKTYSFDSTTAAIMLASYTITHFGKATNPLVRVNRLGPGIPDHPLRLLRIGNQAFLQEFVLPPVQLPQYFTFDLTALKLITQPLPAATWTDDTPTGSNGALRPGISFHPKLRPILLPNKSGKKGNSADLTSPEKIQAIMTSLQDFKIVPIDPTKNIMGIEVPETLVHKLTGKKVTSKNGQPIIPVLLPKYIGLDPVAPGDLTMVITQDCDTCHSPASLPAVIEK"}},
  "biological_target": "the molecule itself",
  "assay": "SEC",
  "data": [
    {"protein": "B1", "values": [
      {"measurement": "stoichiometry N", "result": 2}
    ]}
  ]
}
